The term Kd denotes the concentration at which binding is half-saturated.

Numbering of substitutions follows the chain as printed.

Among the data in article PMC2755649 (Nature cell biology, 2009) are Kd values, retold here.

For assay [1], the target named is T1, Recombinant InlC.K173A with a C-terminal 6xHis tag (Listeria monocytogenes, UniProt P71451 35-297, K173A).
T1 sequence (looked up): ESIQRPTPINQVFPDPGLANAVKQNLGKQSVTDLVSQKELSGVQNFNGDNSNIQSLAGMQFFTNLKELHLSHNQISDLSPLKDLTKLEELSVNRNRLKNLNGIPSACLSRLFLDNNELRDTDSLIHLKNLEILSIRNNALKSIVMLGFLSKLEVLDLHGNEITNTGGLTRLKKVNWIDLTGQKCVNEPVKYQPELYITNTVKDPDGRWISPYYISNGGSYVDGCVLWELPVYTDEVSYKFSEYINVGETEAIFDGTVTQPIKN
The assay can be described thus: SPR. A general note: In SPR one partner is held on a chip, and binding of the other changes the refractive index at the surface.

Assay [2] addresses T2, Recombinant wild-type InlC with a C-terminal 6xHis tag (Listeria monocytogenes, UniProt P71451 35-297).
T2 sequence (looked up): T1 sequence (looked up) with A139K
The assay can be described thus: SPR.

B1: SH36 protein of Tuba linked to the biosensor chip (domain or fragment, human, UniProt Q6XZF7 1513-1577, looked up)
chain: EGNQVYFAVYTFKARNPNELSVSANQKLKILEFKDVTGNTEWWLAEVNGKKGYVPSNYIRKTEYT
Consider B1, for which the Kd was determined as 58 ± 12.3 µM in assay [1] and 9 ± 3.5 µM in assay [2].
